Measurements: US9359599

Tests used:
[1] = system: CCR5B R10 TALEN (Artificial (Xanthomonas TALE-FokI)); experiment: cleavage_in_vitro; details: as L10+R10 pair
[2] = system: CCR5A R18 TALEN canonical ELD/KKR (Artificial (Xanthomonas TALE-FokI)); experiment: cell_activity
[3] = system: CCR5B R13 TALEN (Artificial (Xanthomonas TALE-FokI)); experiment: cleavage_in_vitro; details: as L13+R13 pair
[4] = system: ATM L18 TALEN N2 EL/KK (Artificial (Xanthomonas TALE-FokI)); experiment: cleavage_in_vitro; details: as pair, 12 nM
[5] = system: ATM L18 TALEN canonical EL/KK (Artificial (Xanthomonas TALE-FokI)); experiment: cleavage_in_vitro; details: as L18+R18 pair, 12 nM
[6] = system: ATM L18 TALEN Q3 EL/KK (Artificial (Xanthomonas TALE-FokI)); experiment: cleavage_in_vitro; details: as pair, 12 nM
[7] = system: ATM L18 TALEN N1 EL/KK (Artificial (Xanthomonas TALE-FokI)); experiment: cleavage_in_vitro; details: as pair, 12 nM
[8] = system: ATM L18 TALEN Q7 EL/KK (Artificial (Xanthomonas TALE-FokI)); experiment: cleavage_in_vitro; details: as pair, 12 nM
[9] = system: ATM L18 TALEN N3 EL/KK (Artificial (Xanthomonas TALE-FokI)); experiment: cleavage_in_vitro; details: as pair, 12 nM
[10] = system: CCR5B R16 TALEN (Artificial (Xanthomonas TALE-FokI)); experiment: cleavage_in_vitro; details: as L16+R16 pair
[11] = system: CCR5A R18 TALEN Q3 ELD/KKR (Artificial (Xanthomonas TALE-FokI)); experiment: cell_activity
[12] = system: CCR5A R18 TALEN Q7 ELD/KKR (Artificial (Xanthomonas TALE-FokI)); experiment: cell_activity
[13] = system: CCR5A R18 TALEN 28-aa EL/KK (Artificial (Xanthomonas TALE-FokI)); experiment: cleavage_in_vitro; details: as pair, 16 nM
[14] = system: CCR5A R18 TALEN N2 EL/KK (Artificial (Xanthomonas TALE-FokI)); experiment: cleavage_in_vitro; details: as pair, 16 nM
[15] = system: CCR5A R18 TALEN N3 EL/KK (Artificial (Xanthomonas TALE-FokI)); experiment: cleavage_in_vitro; details: as pair, 16 nM
[16] = system: CCR5A R18 TALEN N1 EL/KK (Artificial (Xanthomonas TALE-FokI)); experiment: cleavage_in_vitro; details: as pair, 16 nM
[17] = system: CCR5A R18 TALEN Q3 EL/KK (Artificial (Xanthomonas TALE-FokI)); experiment: cleavage_in_vitro; details: as pair, 16 nM
[18] = system: CCR5A R18 TALEN canonical EL/KK (Artificial (Xanthomonas TALE-FokI)); experiment: cleavage_in_vitro; details: as L18+R18 pair, 16 nM
[19] = system: CCR5A R18 TALEN Q7 EL/KK (Artificial (Xanthomonas TALE-FokI)); experiment: cleavage_in_vitro; details: as pair, 16 nM
[20] = system: CCR5B L10 TALEN (Artificial (Xanthomonas TALE-FokI)); experiment: cleavage_in_vitro; details: as L10+R10 pair
[21] = system: CCR5B L13 TALEN (Artificial (Xanthomonas TALE-FokI)); experiment: cleavage_in_vitro; details: as L13+R13 pair
[22] = system: ATM R18 TALEN canonical EL/KK (Artificial (Xanthomonas TALE-FokI)); experiment: cleavage_in_vitro; details: as pair, 12 nM
[23] = system: ATM R18 TALEN N1 EL/KK (Artificial (Xanthomonas TALE-FokI)); experiment: cleavage_in_vitro; details: as pair, 12 nM
[24] = system: ATM R18 TALEN N2 EL/KK (Artificial (Xanthomonas TALE-FokI)); experiment: cleavage_in_vitro; details: as pair, 12 nM
[25] = system: ATM R18 TALEN Q7 EL/KK (Artificial (Xanthomonas TALE-FokI)); experiment: cleavage_in_vitro; details: as pair, 12 nM
[26] = system: ATM R18 TALEN N3 EL/KK (Artificial (Xanthomonas TALE-FokI)); experiment: cleavage_in_vitro; details: as pair, 12 nM
[27] = system: ATM R18 TALEN Q3 EL/KK (Artificial (Xanthomonas TALE-FokI)); experiment: cleavage_in_vitro; details: as pair, 12 nM
[28] = system: CCR5B L16 TALEN (Artificial (Xanthomonas TALE-FokI)); experiment: cleavage_in_vitro; details: as L16+R16 pair

Sequence: CATACAGTCA (double strand) [CCR5B R10 half-site]
- activity (fold enrichment) [1]: 44

Sequence: GGTATCTATCCTGGAATA (double strand) [OffC-15 right half-site]
- activity ([2]; pair, off-target, 26 bp spacer): 0.23 % modified

Sequence: CATACAGTCAGTA (double strand) [CCR5B R13 half-site]
- activity (fold enrichment) [3]: 113

Sequence: TGAATTGGGATGCTGTTT (double strand) [ATM left half-site]
- activity (fold enrichment) [4]: 119
- activity (fold enrichment) [5]: 20.5
- activity (fold enrichment) [6]: 50.4
- activity (fold enrichment) [7]: 57.2
- activity (fold enrichment) [8]: 513
- activity (fold enrichment) [9]: 201

Sequence: CATACAGTCAGTATCA (double strand) [CCR5B R16 half-site]
- activity (fold enrichment) [10]: 59.4

Sequence: GATATCCTTTCTGGAAGA (double strand) [OffC-28 right half-site]
- activity ([2]; pair, off-target, 19 bp spacer): 0.163 % modified

Sequence: AGCATCAATCCTGGAAGA (double strand) [OffC-16 right half-site]
- activity ([2]; pair, off-target, 28 bp spacer): 0.031 % modified

Sequence: AGTATCAATTCTGGAAGA (double strand) [CCR5A right half-site]
- activity ([2]; pair in U2OS-EGFP cells): 27.6 % modified
- activity ([11]; pair in U2OS-EGFP cells): 24.3 % modified
- activity ([12]; pair in U2OS-EGFP cells): 5.57 % modified
- activity (fold enrichment) [13]: 70.4
- activity (fold enrichment) [14]: 41.7
- activity (fold enrichment) [15]: 174
- activity (fold enrichment) [16]: 19
- activity (fold enrichment) [17]: 18.6
- activity (fold enrichment) [18]: 12.2
- activity (fold enrichment) [19]: 62.3

Sequence: TTACACCTGC (double strand) [CCR5B L10 half-site]
- activity (fold enrichment) [20]: 44

Sequence: TCATTACACCTGC (double strand) [CCR5B L13 half-site]
- activity (fold enrichment) [21]: 113

Sequence: AGGAGCAACTCTGGGAGA (double strand) [OffC-5 right half-site]
- activity ([2]; pair, off-target, 14 bp spacer): 2.21 % modified
- activity ([11]; pair, off-target): 0.085 % modified
- activity ([12]; pair, off-target, no indels detected): < 0.006 % modified

Sequence: CTCATCAATTCTGGGTGA (double strand) [OffC-13 right half-site]
- activity ([2]; pair, off-target, no indels): < 0.006 % modified

Sequence: TTTATTTTACTGTCTTTA (double strand) [ATM right half-site]
- activity (fold enrichment) [22]: 20.5
- activity (fold enrichment) [23]: 57.2
- activity (fold enrichment) [24]: 119
- activity (fold enrichment) [25]: 513
- activity (fold enrichment) [26]: 201
- activity (fold enrichment) [27]: 50.4

Sequence: TCTTCATTACACCTGC (double strand) [CCR5B L16 half-site]
- activity (fold enrichment) [28]: 59.4
